Source: the NTF2 design screens of Basanta et al. (2020)

Assay: protease stability score; higher = more stable; yeast display proteolysis, trypsin and chymotrypsin;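 note: relative to predicted unfolded state with 0 unfolded-like and 1 meaning tenfold more protease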

Row | Sequence | protease stability score
1 | DEDEHNVREFIERIMRILETGDEHDFKRMADPDVRFEIGDKLIHGMETWSEIHTDELKRIPNLKIQLRIHDVHAYNGRAHVHSHFVIEFDGKRHIIETEMFIIKINGQWHLRSIKYK | 1.46
2 | DEDEHQSRHLAELIMRHIQTGDEEMIERLADPHARSNVNGVTDHGRNTMRWMKEFFKNLTLHIEDVRIVHIGNKVIVIIHLTVRFENREEHVIIIIISEKFDGRWWITEIEIRIK | 0.505
3 | DEDEHRTKYWMQILIEVFKTGDWRRLWELFDPNVRLDINGKDSHGRRDMVRVFEEELRHMGINHIELRDFEIQGEKAIVHMTINVDGRRHELELIFLVVDGRVKEIRVHER | 1.88
4 | DEDEHTIRELFKEFIIAQVTGDFERLHELLDPHARLEIDGVILHGREQWTKFMQHLLEYLGIKHVSFHLHHLDVQGEKVKLDSRVRLFFNGVHYEKRNIIIWRKFNGRWYLEESTIE | 1.48
5 | DEDEHVLEHIVRLLIRIHLTGNFDRLRELVDPHAQIIIGDKEYHGWHMLEKWLERMGIDHIHIRHNEIRYYGEFAVLHLDTEVSIDGQSLHQIVHLDVDKVDGKWRVKNIRTDHR | 1.34
6 | DEDEHYAREAVHLVYEILHTGDEHELMKYADPDTRIDIGDKTHIGRDRVVEAIHKMHKKLGVDHEVLTDSKVHWQGNKIEIYLKIEIHVGDKRFEMDIIIHLEKINGRWRVKSMRIDFR | 1.33
7 | DEDEKASKEFMRLVMEVLKTGDWKSLVDLADPHARLHINGREIHGREKISEILLHELDLLGFKHMEVRVHHVEVQGEKMKFDVRHSLDVNGVERHETSMIISVKFDGQWWLKEEIVK | -0.07
8 | DEDEKASKVFVRLIKESIETGDEDTITHLADPNVRVIIGDKELHGWEELSRILHELRIHRFIVRREHVYDGRVQIDGRMDTEINGKKFITEVHVDAIKINGVWWLHLVEIR | 1.38
9 | DEDEKDAERAVKHWIKLMHTGDEELLIRLFDPHTRVEIDGVEFHGREKVTELFREFTKRVKNVRIILRRYRIVGEWIEVDTEVRVGDKSSEVHLVILKVDGKWIMHVEHYK | 1.85
10 | DEDEKDTHIWIKILEHIWDTGDEESFERLADPNVRFIQGEKELHGRERLIRFLSKYKNLTFRSEDYHIVNGRALVRITNHVNGRDLEMIIYYEKVNGQWHNKEIELR | 1.27
11 | DEDEKEAEHAAKLFSRHFRTGDEDLLREMIDPNVRIRIGDKELHGWEEFTRLMREWRFDDVHVEHIHVQGDKVIVDSILHVIINGRHIDFRSHIYIEKIDGRWVIRSFEIR | 0.651
12 | DEDEKEAHELSRTIIESWLTGDEDSLSEMMDPHTRSDVNGRISHGREEASRVWHEEMRKLGVKHYEIKRVHSRVIDGRLDLHIYSRMHINGVSRSVELIFHIEKVNGRWLIKEVRVHLL | 1.25
13 | DEDEKEATHWWRLLIKNIETGDEKSEKELLDPHARVEIGEFESVGRETVAEMWFRLMEHIRLKDSHEKDFDMQGDYMHVNGHVVGEYNGKHIKSDVRIILIVIDGRVKEVTVKIH | 0.208
14 | DEDEKEIAKTVKELVHSLRTGDWEKITRMADPHVKIHVNGRELHGWEEMRRFEEEEFKRLGFKHRDVELKDFRYQGNFAHVHGNLVVEFNGVEEEIDQHIIILKVNGRWLITEIRHH | 1.31
15 | DEDEKELERVMREFMRVWLTGNEKDFKELMDPHVRLEIGDKEHHGREEAVRILHEWRRKLGVDHSDYHHIHVQGEKMHVRGISEYNGRTVEVIIEVLIINGKLRSVHVEFR | 2.57
16 | DEDEKEQKEIADLWKKYVDTGDEKLLMELMDPTARLNIGDKRFHGRETFEHVMREIKKRYDHFELHIHHIDIQGEKIRMEGREINKFDGKTVDIRTRIRIIVVNGRITFLHHQLD | 0.622
17 | DEDEKERKRDLDKLRHFLETGNEQHLLEMLDPHARVTVGDKELIGREDFSKWMLEMRIHHDEIKRLEIYNGRIHVDYEMDVEVGDKRFRTDFRITARKVNGRWILHSMEVK | 1.54
18 | DEDEKESKEAIEISFRLWRTGNEEEIHNYADPRARLEVFINGRLIQRHGREDFSRFMNEQLKRLGIDHIHIERLEIQGEKVIVDIHITVNGQHFRLHQDARKVDGRWIIHDVKINLL | 2.65
19 | DEDEKEYTEMVLILSRMIETGDEDSLRRLMDPHAKIHINGKEIHGRELWVHILHEHKRKLGYDNIRVNVHRIWVHGDKIRVHGHLHIDGKEHEVHVHIEKINGRWVLRHDEIR | 1.68
20 | DEDEKFTKEVIELWIRALRTGDEHTLMRLMDPHVRFEDENYSLHGREDVSRWLIKLLVHLRLEESDEHDSKIIGDKAHLHITSNHIFNGKELHMEIHIIVFKINGRWFVHEVRFR | 1.72
21 | DEDEKHARDLMKLWQLAMFTGDEDTLKRLVDPDMRLKYGEFELHGREDLLRFFKHWRLESRLETTDVRFQGDKLVAYGVRRHVSHIDGVEVEETRRVITYILKVDGQWYVKSVEIR | 1.67
22 | DEDEKHMEEWLRLLKHALVTGDFEMILRNLDPHYRNDINGREFHGWEFFDKLMKEIRVKDSHLTHIEIYDGKAISETNVDLHVDGKDVLLDTRVVIDKYNGRWIIRHVSID | 1.23
23 | DEDEKIARDQLEHFFHSVQTGNEDELRRLLDPNTYIDINGRTYHGREEVVKWMVHWFEHARLRRVHIRHSRSIGDKIILDTKMNVDINGVERHLDVNVIYLKVDGKWINHSEIVK | 1.56
24 | DEDEKIIEDIIRKIWLAFMTGDEELYERLADPEDRLEVGEKTAVGREDVRRALHEWIRKLGIKHSHTRHMDFQGDKLIIHGEMLFNGRTFDLQLEFNVVNGRLKSMHVRIR | 1.58
25 | DEDEKIIQQFLREHTETNDTGDENTFKKQLDPHARTIFNGREYHGREDAYRILKELGWSRFEFHLRHVDIQGEKLHVMGLLRVDGKWLDVEIVANKINGRWVLTEFHIN | 0.417
